# Ends that are not written are not given here.
# Key:
# [1] = target: T1, human plasma Kallikrein (Calbiochem, San Diego, Calif., # 420302) (human, UniProt P03952 20-638); experiment: inhibition; method not described
# T1 construct: mature; Bought enzyme coupled to agarose beads with Reactigel (6x); also called pKA; human Kallikrein
# Plasmin [2] = target: T2, Plasmin; experiment: inhibition; method not described
# T2 construct: Protease target in the specificity test
# [3] = target: T1, human plasma Kallikrein (Calbiochem, …); experiment: preliminary inhibition measurements; method not described
# [4] = target: T1, human plasma Kallikrein (Calbiochem, …); experiment: display-phage binding to kallikrein beads; pfu eluted / input (10^10 pfu)
# [5] = target: T1, human plasma Kallikrein (Calbiochem, …); experiment: display-phage binding to kallikrein beads; fraction bound relative to parental
# [6] = target: T1, human plasma Kallikrein (Calbiochem, …); experiment: display-phage binding to protease target
# Plasmin [7] = target: T2, Plasmin; experiment: display-phage binding to protease target
# Thrombin = target: T3, Thrombin; experiment: display-phage binding to protease target
# T3 construct: Protease target in the specificity test
# Trypsin [8] = target: T4, Trypsin; experiment: display-phage binding to protease target
# T4 construct: Protease target in the specificity test
# Trypsin [9] = target: T4, Trypsin; experiment: display-phage binding to protease target; trypsin, two washes
# T1 sequence (P03952 20-638 limits assumed): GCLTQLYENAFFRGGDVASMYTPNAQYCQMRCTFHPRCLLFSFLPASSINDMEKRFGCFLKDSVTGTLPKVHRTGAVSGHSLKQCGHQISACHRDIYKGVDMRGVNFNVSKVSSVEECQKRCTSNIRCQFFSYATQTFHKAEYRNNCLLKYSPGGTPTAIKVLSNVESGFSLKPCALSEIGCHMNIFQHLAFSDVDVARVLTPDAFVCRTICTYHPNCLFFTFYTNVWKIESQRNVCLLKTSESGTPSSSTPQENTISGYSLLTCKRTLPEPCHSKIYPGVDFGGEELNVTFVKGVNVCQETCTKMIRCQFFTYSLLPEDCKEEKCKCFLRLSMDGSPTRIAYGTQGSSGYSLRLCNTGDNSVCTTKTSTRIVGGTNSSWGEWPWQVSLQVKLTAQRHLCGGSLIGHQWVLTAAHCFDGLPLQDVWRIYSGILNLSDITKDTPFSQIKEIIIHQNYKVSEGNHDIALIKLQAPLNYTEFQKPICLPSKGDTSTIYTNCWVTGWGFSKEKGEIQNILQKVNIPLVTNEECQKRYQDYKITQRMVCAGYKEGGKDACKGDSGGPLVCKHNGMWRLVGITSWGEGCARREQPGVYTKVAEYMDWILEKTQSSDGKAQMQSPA
# T2 sequence (P00747 97-580, chain 1 of 2): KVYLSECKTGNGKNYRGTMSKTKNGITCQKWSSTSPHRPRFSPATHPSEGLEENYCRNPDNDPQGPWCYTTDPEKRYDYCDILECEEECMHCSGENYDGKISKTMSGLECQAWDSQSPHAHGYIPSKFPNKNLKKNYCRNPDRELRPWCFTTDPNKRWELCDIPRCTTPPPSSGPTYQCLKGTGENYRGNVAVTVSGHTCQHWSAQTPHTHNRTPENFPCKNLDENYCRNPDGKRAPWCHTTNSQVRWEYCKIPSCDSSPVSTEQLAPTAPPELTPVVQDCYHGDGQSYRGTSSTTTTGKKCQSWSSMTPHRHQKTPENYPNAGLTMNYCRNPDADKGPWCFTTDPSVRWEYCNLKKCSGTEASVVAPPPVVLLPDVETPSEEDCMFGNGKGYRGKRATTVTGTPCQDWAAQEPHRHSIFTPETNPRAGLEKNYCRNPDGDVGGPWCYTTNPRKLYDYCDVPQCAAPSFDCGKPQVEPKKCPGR
# T2 sequence (P00747 581-810, chain 2 of 2): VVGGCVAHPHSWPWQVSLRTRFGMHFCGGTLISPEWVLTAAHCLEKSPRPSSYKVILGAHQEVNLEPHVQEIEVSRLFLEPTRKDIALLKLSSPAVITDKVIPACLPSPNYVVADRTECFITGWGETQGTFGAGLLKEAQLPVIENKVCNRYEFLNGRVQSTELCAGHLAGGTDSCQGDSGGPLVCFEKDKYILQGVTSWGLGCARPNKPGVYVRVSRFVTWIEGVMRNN
Ki ratio against wild-type LACI and BPTI [1] [times],Ki (Plasmin [2]) [µM],Ki [3] [µM],Fraction Bound [4],Relative Binding [5],relative binding (compared to the parental phage display) [6],relative binding (compared to the parental phage display) (Plasmin [7]),relative binding (compared to the parental phage display) (Thrombin),relative binding (compared to the parental phage display) (Trypsin [8]),relative binding (compared to the parental phage display) (Trypsin [9]),Binder
> 100,10,< 0.0005,0.0087 fraction of input pfu,2070 fold relative to LACI(K1) display-phage,,,,,,"KKII/3#6 (designed binder, LACI-K1 Kunitz domain variant) MHSFCAFKADDGHCKANHQRFFFNIFTRQCEEFSYGGCGGNQNRFESLEECKKMCTRD"
,,,0.0039 fraction of input pfu,928 fold relative to LACI(K1) display-phage,,,,,,"KKII/3#5 (designed binder, LACI-K1 Kunitz domain variant) MHSFCAFKADDGHCKASLPRFFFNIFTRQCEEFIYGGCGGNQNRFESLEECKKMCTRD"
,,,0.0022 fraction of input pfu,524 fold relative to LACI(K1) display-phage,,,,,,"KKI/3 (b) (designed binder, not fully specified; cysteine pairing not given here, LACI-K1 variant from the first phase of screening; also called KKII/3 (b); clone b) MHSFCAFKADDGPCKAIHLRFFFNIFTRQCEEFIYGGCEGNQNRFESLEECKKMCTRD"
,,,3.2e-05 fraction of input pfu,761 fold relative to LACI(K1) display-phage,,,,,,"KKI/3 (a) (designed binder, not fully specified; cysteine pairing not given here, LACI-K1 variant from the first phase of screening; also called KKII/3 (a); clone a) MHSFCAFKADDGRCKGAHLRFFFNIFTRQCEEFIYGGCEGNQNRFESLEECKKMCTRD"
,,,4.2e-06 fraction of input pfu,1 fold relative to LACI(K1) display-phage,1 fold relative to parental phage display,1 fold relative to parental phage display,1 fold relative to parental phage display,1 fold relative to parental phage display,1 fold relative to parental phage display,"LACI-K1 (first Kunitz domain of LACI, residues 50-107 of SEQ ID NO:25) (other, also called parental molecule) MHSFCAFKADDGPCKAIMKRFFFNIFTRQCEEFIYGGCEGNQNRFESLEECKKMCTRD"
